Assay results from PMC8809517, “Cofactor-independent RNA editing by a synthetic S-type PPR protein”.

Legend:
Assay in all cases: high-throughput RNA pulldown from lysate on Ni-NTA beads; HRP: 50 mM Tris pH 8, 150 mM NaCl, 1 mM beta-mercaptoethanol, 50 ug/ml BSA, 3 ug/ml yeast RNA, 0.5% heparin; ITC and FP: Tris pH 8, 200 mM KCl, 5% glycerol; MST: 50 mM Tris pH 8, 200 mM NaCl, 1 mM DTT, BSA, heparin, 0.05% Tween 20
Settings in all cases: tags: N-terminal His-eGFP
[1] = biological target: T1, GFP-9S library array, motif 4 ND N98W;D124C (synthetic construct, N98W;D124C)
T1 chain: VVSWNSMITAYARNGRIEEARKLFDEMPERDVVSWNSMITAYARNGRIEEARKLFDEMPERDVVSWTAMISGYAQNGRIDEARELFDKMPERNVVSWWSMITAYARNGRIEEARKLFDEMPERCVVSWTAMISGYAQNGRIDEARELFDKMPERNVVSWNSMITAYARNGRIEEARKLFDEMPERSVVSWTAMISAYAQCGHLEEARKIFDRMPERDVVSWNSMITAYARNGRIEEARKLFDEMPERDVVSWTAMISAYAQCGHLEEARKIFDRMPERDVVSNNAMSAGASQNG

[2] = biological target: T2, GFP-9S library array, motif 4 ND D124N (synthetic construct, D124N)
T2 chain: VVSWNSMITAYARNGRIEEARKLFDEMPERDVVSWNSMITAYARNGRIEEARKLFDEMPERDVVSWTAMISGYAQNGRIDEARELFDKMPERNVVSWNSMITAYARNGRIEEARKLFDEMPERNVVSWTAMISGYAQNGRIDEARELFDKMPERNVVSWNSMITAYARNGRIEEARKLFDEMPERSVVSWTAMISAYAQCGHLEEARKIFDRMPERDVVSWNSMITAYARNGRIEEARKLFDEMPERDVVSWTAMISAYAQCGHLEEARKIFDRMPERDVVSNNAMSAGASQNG

[3] = biological target: T3, GFP-9S library array, motif 4 ND N98I;D124E (synthetic construct, N98I;D124E)
T3 chain: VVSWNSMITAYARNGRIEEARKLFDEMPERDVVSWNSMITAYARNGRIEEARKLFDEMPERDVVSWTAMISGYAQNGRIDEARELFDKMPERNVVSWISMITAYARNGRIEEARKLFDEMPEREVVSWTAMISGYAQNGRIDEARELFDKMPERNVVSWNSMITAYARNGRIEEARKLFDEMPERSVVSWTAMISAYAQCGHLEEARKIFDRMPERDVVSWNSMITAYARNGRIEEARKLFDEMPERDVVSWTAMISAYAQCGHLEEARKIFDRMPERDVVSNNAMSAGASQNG

[4] = biological target: T4, GFP-9S library array, motif 4 ND N98G;D124K (synthetic construct, N98G;D124K)
T4 chain: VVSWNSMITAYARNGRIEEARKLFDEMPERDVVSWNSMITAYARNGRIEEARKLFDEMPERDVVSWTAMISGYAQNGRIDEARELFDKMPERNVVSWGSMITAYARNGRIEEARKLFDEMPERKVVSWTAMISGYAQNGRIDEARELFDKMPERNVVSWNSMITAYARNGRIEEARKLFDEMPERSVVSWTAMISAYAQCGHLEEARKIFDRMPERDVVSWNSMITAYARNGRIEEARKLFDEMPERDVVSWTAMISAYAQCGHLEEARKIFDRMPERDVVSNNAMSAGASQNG

[5] = biological target: T5, GFP-9S library array, motif 4 ND D124F (synthetic construct, D124F)
T5 chain: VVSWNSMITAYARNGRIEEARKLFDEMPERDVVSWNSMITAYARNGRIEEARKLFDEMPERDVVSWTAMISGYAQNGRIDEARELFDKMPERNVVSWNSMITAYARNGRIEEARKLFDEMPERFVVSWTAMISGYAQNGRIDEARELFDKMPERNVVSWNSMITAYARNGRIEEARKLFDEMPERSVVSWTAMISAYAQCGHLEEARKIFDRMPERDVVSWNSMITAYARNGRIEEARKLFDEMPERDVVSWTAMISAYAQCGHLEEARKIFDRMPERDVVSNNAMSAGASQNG

Question: For AUUAAACGUGA (ssRNA) [IR-rpoA-A], which Kd ([1]; label: 5' IRDye 800CW) is on record?
Answer: 181 nM

Question: What about the Kd ([2]; label: 5' IRDye 800CW) of the same binder?
Answer: 114 nM

Question: And the Kd ([3]; label: 5' IRDye 800CW)?
Answer: 48.6 nM

Question: And the Kd ([4]; label: 5' IRDye 800CW)?
Answer: 34.3 nM

Question: What about the Kd ([5]; label: 5' IRDye 800CW) of the same binder?
Answer: 202 nM

Question: AUUACACGUGA (ssRNA) [Cy5-rpoA] was tested. Which Kd ([1]; label: 5' Cy5) did it give?
Answer: 79.4 nM

Question: What about the Kd ([2]; label: 5' Cy5) of the same binder?
Answer: 3.13 nM

Question: What about the Kd ([3]; label: 5' Cy5) of the same binder?
Answer: 97.2 nM

Question: What about the Kd ([4]; label: 5' Cy5) of the same binder?
Answer: 103 nM

Question: What about the Kd ([5]; label: 5' Cy5) of the same binder?
Answer: 109 nM

Question: With AUUAGACGUGA (ssRNA) [Cy5-rpoA-G] as the binder, how does the Kd ([1]; label: 5' Cy5) read?
Answer: 77.6 nM

Question: What about the Kd ([2]; label: 5' Cy5) of the same binder?
Answer: 178 nM

Question: What about the Kd ([3]; label: 5' Cy5) of the same binder?
Answer: 78.6 nM

Question: What about the Kd ([4]; label: 5' Cy5) of the same binder?
Answer: 65.4 nM

Question: And the Kd ([5]; label: 5' Cy5)?
Answer: 140 nM

Question: For AUUAUACGUGA (ssRNA) [IR-rpoA-U], which Kd ([1]; label: 5' IRDye 800CW) is on record?
Answer: 199 nM

Question: What about the Kd ([2]; label: 5' IRDye 800CW) of the same binder?
Answer: 11.6 nM

Question: And the Kd ([3]; label: 5' IRDye 800CW)?
Answer: 43.1 nM

Question: What about the Kd ([4]; label: 5' IRDye 800CW) of the same binder?
Answer: 59.7 nM

Question: What about the Kd ([5]; label: 5' IRDye 800CW) of the same binder?
Answer: 63.9 nM
